Test results from WO2011095604A1 (dated 2011).
Where no end group is shown, it is not given here.

T1: C2 domain of FVIII (Homo sapiens (Human), UniProt P00451 2192-2351)
T1 construct: Negative control
T1 sequence: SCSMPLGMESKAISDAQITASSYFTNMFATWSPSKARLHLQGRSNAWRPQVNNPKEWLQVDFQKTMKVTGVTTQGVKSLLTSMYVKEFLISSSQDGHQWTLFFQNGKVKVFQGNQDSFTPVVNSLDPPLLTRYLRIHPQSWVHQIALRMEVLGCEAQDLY


How the values were obtained:
recombinant FIX = biological target: T2, recombinant FIX (UniProt P00740 47-461); test: BLI (Octet Red), biotinylated peptide on streptavidin sensor
T2 construct: Negative control; also called factor IX

C2 domain of FVIII = biological target: T1, C2 domain of FVIII; test: as above

T2 sequence (P00740 47-461 limits assumed): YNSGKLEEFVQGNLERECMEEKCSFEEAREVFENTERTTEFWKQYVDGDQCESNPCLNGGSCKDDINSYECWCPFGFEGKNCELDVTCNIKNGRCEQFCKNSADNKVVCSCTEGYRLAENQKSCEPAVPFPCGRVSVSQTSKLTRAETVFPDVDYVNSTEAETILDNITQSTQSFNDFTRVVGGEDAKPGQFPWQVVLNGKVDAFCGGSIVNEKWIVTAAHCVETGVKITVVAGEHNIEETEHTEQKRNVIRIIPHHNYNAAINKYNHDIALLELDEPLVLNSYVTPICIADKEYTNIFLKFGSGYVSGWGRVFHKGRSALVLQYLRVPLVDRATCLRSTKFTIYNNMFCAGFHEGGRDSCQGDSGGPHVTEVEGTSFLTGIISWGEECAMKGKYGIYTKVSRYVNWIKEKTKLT

Binder | binding result (recombinant FIX) | binding result (C2 domain of FVIII)
TTWGMRIRLFERQAR (also: biotinylated (position not given here), random peptide of the Octet screening) [SEQ ID NO 2] | no binding | no binding
LSGKNGPWVKMIMWG (also: biotinylated (position not given here), random peptide of the Octet screening) [SEQ ID NO 11] | no binding | no binding
WKHHMRKAIPKYEGK (also: biotinylated (position not given here), random peptide of the Octet screening) [SEQ ID NO 12] | no binding | no binding
DMFKSVRQLMMSRGR (also: biotinylated (position not given here), random peptide of the Octet screening) [SEQ ID NO 13] | no binding | no binding
QRIKGLHFATSMGYA (also: biotinylated (position not given here), random peptide of the Octet screening) [SEQ ID NO 14] | no binding | no binding
SPWSWQRQMKKWTPQ (also: biotinylated (position not given here), random peptide of the Octet screening) [SEQ ID NO 15] | no binding | no binding
AYRPSTSREHWRRHW (also: biotinylated (position not given here), random peptide of the Octet screening) [SEQ ID NO 16] | no binding | no binding
KKRDARTNYRYMAYS (also: biotinylated (position not given here), random peptide of the Octet screening) [SEQ ID NO 17] | no binding | no binding
ISRWRLLMGKKSQHD (also: biotinylated (position not given here), random peptide of the Octet screening) [SEQ ID NO 18] | no binding | no binding
IADKEYTNIFLKFGSGYVS (also: biotinylated (position not given here), random peptide of the Octet screening) [SEQ ID NO 19] | no binding | no binding
RVPLVDRATCLRSTKFTIYNN (also: biotinylated (position not given here), random peptide of the Octet screening) [SEQ ID NO 20] | no binding | no binding
RMRMYSSLRAWKESA (also: biotinylated (position not given here), random peptide of the Octet screening) [SEQ ID NO 3] | no binding | no binding
IADKEYTNIFLKFGVSVLVDRATCLRSTKFTIYNN (also: biotinylated (position not given here), random peptide of the Octet screening) [SEQ ID NO 21] | no binding | no binding
EYISWEYC (also: biotinylated (position not given here), random peptide of the Octet screening) [SEQ ID NO 22] | no binding | no binding
WCPFGFEGKNCELDVTCNIKNGRCEQFCKNSADNKVVCS (cysteine pairing not given here; also: biotinylated (position not given here), random peptide of the Octet screening) [SEQ ID NO 23] | no binding | no binding
PIRIMIHSLIMNRPT (also: biotinylated (position not given here), random peptide of the Octet screening) [SEQ ID NO 4] | no binding | no binding
SPSWVRPSIMEWRMN (also: biotinylated (position not given here), random peptide of the Octet screening) [SEQ ID NO 5] | no binding | no binding
NKLTSGDRPGLWFMV (also: biotinylated (position not given here), random peptide of the Octet screening) [SEQ ID NO 6] | no binding | no binding
RDERMKLIRNFSPIM (also: biotinylated (position not given here), random peptide of the Octet screening) [SEQ ID NO 7] | no binding | no binding
EPLMTMKMIRVMRKL (also: biotinylated (position not given here), random peptide of the Octet screening) [SEQ ID NO 8] | no binding | no binding
TERQMIHKIFALMSG (also: biotinylated (position not given here), random peptide of the Octet screening) [SEQ ID NO 9] | no binding | no binding
EMMKPNYADLIMRKR (also: biotinylated (position not given here), random peptide of the Octet screening) [SEQ ID NO 10] | no binding | no binding
